Like-named read-outs stand apart in the source and are kept apart here.
Columns and labels:
[1] = biological target: TSH receptor (detergent solubilised TSH receptor preparation) (UniProt P16473); test: TSHR coated tubes after serum NSF 21
[2] = biological target: TSH receptor (detergent solubilised TSH receptor preparation) (UniProt P16473); test: TSHR coated tubes after serum G43
[3] = biological target: TSH receptor (detergent solubilised TSH receptor preparation) (UniProt P16473); test: TSHR coated tubes, healthy blood donor sera
[4] = biological target: TSH receptor (detergent solubilised TSH receptor preparation) (UniProt P16473); test: TSHR coated tubes after serum G40
[5] = biological target: TSH receptor (detergent solubilised TSH receptor preparation) (UniProt P16473); test: TSHR coated tubes after serum G39
[6] = biological target: TSH receptor (detergent solubilised TSH receptor preparation) (UniProt P16473); test: TSHR coated tubes after serum NSF 18
[7] = biological target: TSH receptor (detergent solubilised TSH receptor preparation) (UniProt P16473); test: TSHR coated tubes after serum G30
[8] = biological target: TSH receptor (detergent solubilised TSH receptor preparation) (UniProt P16473); test: TSHR coated tubes after serum G41
[9] = biological target: TSH receptor (detergent solubilised TSH receptor preparation) (UniProt P16473); test: TSHR coated tubes after serum G51
[10] = biological target: TSH receptor (detergent solubilised TSH receptor preparation) (UniProt P16473); test: TSHR coated tubes after serum G49
[11] = biological target: TSH receptor (detergent solubilised TSH receptor preparation) (UniProt P16473); test: 125I-TSHR immunoprecipitation; competitor TRAb of serum K3
[12] = biological target: TSH receptor (detergent solubilised TSH receptor preparation) (UniProt P16473); test: TSHR coated tubes after serum G35
[13] = biological target: TSH receptor (detergent solubilised TSH receptor preparation) (UniProt P16473); test: TSHR coated tubes after serum NSF 5
[14] = biological target: TSH receptor (detergent solubilised TSH receptor preparation) (UniProt P16473); test: TSHR coated tubes after serum G44
[15] = biological target: TSH receptor (detergent solubilised TSH receptor preparation) (UniProt P16473); test: TSHR coated tubes after serum G47
[16] = biological target: TSH receptor (detergent solubilised TSH receptor preparation) (UniProt P16473); test: TSHR coated tubes after serum G38
[17] = biological target: TSH receptor (detergent solubilised TSH receptor preparation) (UniProt P16473); test: TSHR coated tubes after serum NSF 4
[18] = biological target: TSH receptor (detergent solubilised TSH receptor preparation) (UniProt P16473); test: TSHR coated tubes after serum G28
[19] = biological target: TSH receptor (detergent solubilised TSH receptor preparation) (UniProt P16473); test: TSHR coated tubes after serum G26
[20] = biological target: TSH receptor (detergent solubilised TSH receptor preparation) (UniProt P16473); test: TSHR coated tubes after serum NSF 16
[21] = biological target: TSH receptor (detergent solubilised TSH receptor preparation) (UniProt P16473); test: TSHR coated tubes after serum G50
[22] = biological target: TSH receptor (detergent solubilised TSH receptor preparation) (UniProt P16473); test: TSHR coated tubes after serum G45
[23] = biological target: TSH receptor (detergent solubilised TSH receptor preparation) (UniProt P16473); test: TSHR coated tubes after serum NSF 17
[24] = biological target: TSH receptor (detergent solubilised TSH receptor preparation) (UniProt P16473); test: TSHR coated tubes after serum G23
[25] = biological target: TSH receptor (detergent solubilised TSH receptor preparation) (UniProt P16473); test: TSHR coated tubes after serum G33
[26] = biological target: TSH receptor (detergent solubilised TSH receptor preparation) (UniProt P16473); test: TSHR coated tubes after serum G25
[27] = biological target: TSH receptor (detergent solubilised TSH receptor preparation) (UniProt P16473); test: TSHR coated tubes after serum G32
[28] = biological target: TSH receptor (detergent solubilised TSH receptor preparation) (UniProt P16473); test: TSHR coated tubes after serum G36
[29] = biological target: TSH receptor (detergent solubilised TSH receptor preparation) (UniProt P16473); test: TSHR coated tubes after serum G34
[30] = biological target: TSH receptor (detergent solubilised TSH receptor preparation) (UniProt P16473); test: TSHR coated tubes after serum G52
[31] = biological target: TSH receptor (detergent solubilised TSH receptor preparation) (UniProt P16473); test: TSHR coated tubes after serum G31
[32] = biological target: TSH receptor (detergent solubilised TSH receptor preparation) (UniProt P16473); test: TSHR coated tubes after serum NSF 26
[33] = biological target: TSH receptor (detergent solubilised TSH receptor preparation) (UniProt P16473); test: TSHR coated tubes after serum NSF 10
[34] = biological target: TSH receptor (detergent solubilised TSH receptor preparation) (UniProt P16473); test: TSHR coated tubes after serum NSF 22
[35] = biological target: TSH receptor (detergent solubilised TSH receptor preparation) (UniProt P16473); test: TSHR coated tubes after serum G37
[36] = biological target: TSH receptor (detergent solubilised TSH receptor preparation) (UniProt P16473); test: TSHR coated tubes after serum G24
[37] = biological target: TSH receptor (detergent solubilised TSH receptor preparation) (UniProt P16473); test: TSHR coated tubes after serum NSF 20
[38] = biological target: TSH receptor (detergent solubilised TSH receptor preparation) (UniProt P16473); test: TSHR coated tubes after serum G48
[39] = biological target: TSH receptor (detergent solubilised TSH receptor preparation) (UniProt P16473); test: TSHR coated tubes after serum G46
[40] = biological target: TSH receptor (detergent solubilised TSH receptor preparation) (UniProt P16473); test: TSHR coated tubes, healthy blood donor sera; remark: listed apart in the source
[41] = biological target: TSH receptor (detergent solubilised TSH receptor preparation) (UniProt P16473); test: TSHR coated tubes after serum G27
[42] = biological target: TSH receptor (detergent solubilised TSH receptor preparation) (UniProt P16473); test: TSHR coated tubes after serum G29

TSH receptor (detergent solubilised TSH receptor preparation), sequence (P16473 21-764 limits assumed): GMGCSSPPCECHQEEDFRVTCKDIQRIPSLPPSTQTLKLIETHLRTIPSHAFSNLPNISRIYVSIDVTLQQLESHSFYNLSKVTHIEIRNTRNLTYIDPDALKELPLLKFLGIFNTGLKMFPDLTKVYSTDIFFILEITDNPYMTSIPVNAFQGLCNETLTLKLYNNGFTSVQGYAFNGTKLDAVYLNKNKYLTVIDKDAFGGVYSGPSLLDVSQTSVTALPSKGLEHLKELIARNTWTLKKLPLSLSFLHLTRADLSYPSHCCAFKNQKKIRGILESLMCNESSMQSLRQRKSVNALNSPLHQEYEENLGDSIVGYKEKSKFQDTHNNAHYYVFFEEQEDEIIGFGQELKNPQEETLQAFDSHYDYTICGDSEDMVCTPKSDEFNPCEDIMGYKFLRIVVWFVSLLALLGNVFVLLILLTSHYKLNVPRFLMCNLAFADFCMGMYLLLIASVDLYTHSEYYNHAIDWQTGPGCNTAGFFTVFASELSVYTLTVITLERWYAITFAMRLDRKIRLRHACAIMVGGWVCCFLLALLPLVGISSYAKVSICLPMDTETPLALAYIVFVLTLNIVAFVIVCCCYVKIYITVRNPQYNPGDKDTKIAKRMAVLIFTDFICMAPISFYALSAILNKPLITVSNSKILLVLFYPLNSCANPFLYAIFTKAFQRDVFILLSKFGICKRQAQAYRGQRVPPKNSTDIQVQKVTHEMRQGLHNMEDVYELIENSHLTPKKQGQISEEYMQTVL
TSH (thyrotrophin, thyroid stimulating hormone) (ligand), sequence (P01223 21-132): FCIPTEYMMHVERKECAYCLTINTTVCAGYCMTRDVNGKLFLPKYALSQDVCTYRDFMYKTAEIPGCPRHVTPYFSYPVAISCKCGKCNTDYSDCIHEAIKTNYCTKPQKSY

% total counts bound (% total counts added) [1]: 12.3 | % total counts bound (% total counts added) [2]: 4 | mean % total counts bound [3]: 12.1% | % total counts bound (% total counts added) [4]: 7.2 | % total counts bound (% total counts added) [5]: 7.9 | % total counts bound (% total counts added) [6]: 11.2 | % total counts bound (% total counts added) [7]: 5.3 | % total counts bound (% total counts added) [8]: 10.8 | % total counts bound (% total counts added) [9]: 7.9 | % total counts bound (% total counts added) [10]: 6.1 | % inhibition of TRAb binding [11]: 55.4% | % total counts bound (% total counts added) [12]: 4.3 | % total counts bound (% total counts added) [13]: 12.3 | % total counts bound (% total counts added) [14]: 12.4 | % total counts bound (% total counts added) [15]: 4.3 | % total counts bound (% total counts added) [16]: 10 | % total counts bound (% total counts added) [17]: 12.5 | % total counts bound (% total counts added) [18]: 3.8 | % total counts bound (% total counts added) [19]: 2.6 | % total counts bound (% total counts added) [20]: 12 | % total counts bound (% total counts added) [21]: 6.3 | % total counts bound (% total counts added) [22]: 3.5 | % total counts bound (% total counts added) [23]: 11.5 | % total counts bound (% total counts added) [24]: 8.9 | % total counts bound (% total counts added) [25]: 6.1 | % total counts bound (% total counts added) [26]: 7.2 | % total counts bound (% total counts added) [27]: 7.5 | % total counts bound (% total counts added) [28]: 10.1 | % total counts bound (% total counts added) [29]: 7.5 | % total counts bound (% total counts added) [30]: 7.4 | % total counts bound (% total counts added) [31]: 4.3 | % total counts bound (% total counts added) [32]: 12.8 | % total counts bound (% total counts added) [33]: 12.5 | % total counts bound (% total counts added) [34]: 12.4 | % total counts bound (% total counts added) [35]: 9.3 | % total counts bound (% total counts added) [36]: 6.9 | % total counts bound (% total counts added) [37]: 12.3 | % total counts bound (% total counts added) [38]: 4.8 | % total counts bound (% total counts added) [39]: 2.7 | mean % total counts bound [40]: 12.2% | % total counts bound (% total counts added) [41]: 7.3 | % total counts bound (% total counts added) [42]: 8
Substance: TSH (thyrotrophin, thyroid stimulating hormone) (ligand)

Reference: patent publication US20050118638A1
